Results from US20130064835A1, “RAGE REGULATES ROCK ACTIVITY IN CARDIOVASCULAR DISEASE” (priority 2009, published 2013).

Columns and labels:
[1] = system: vascular smooth muscle cells; assay: Smooth muscle cell proliferation assay (tritiated thymidine incorporation); format: cell-based, mice; settings: for S100B-stimulated SMC proliferation in presence of inhibitor: preincubation with agent (Y27632 10 μM, fasudil 10 μM, anti-Tgf-β2 IgG 10 μg/ml vs IgG control), FIGS. 8C, 8E; for SMC proliferation on incubation with stimulant: FIG. 8A
Description: (§1) Wild-type and RAGE null mice vascular smooth muscle cells were isolated and cultured from the aorta and employed through passage 5 to 7. Migration assays were performed using the QCM Colorimetric Cell Migration Assay (Chemicon). Cells (3×10^5/well) were seeded into the upper chambers fitted with a lower 8 μm porous polycarbonate membrane, and the insert was placed in the lower chamber of a 24-well dish containing Dulbeccos' modified Eagle medium and no stimulant, S100B (10 μg/ml; generously provided by Dr. Guenter Fritz), Tgf-β2 (10 ng/ml; R&D Systems), or PDGF (10 ng/ml; R&D Systems) and incubated at 37° C. for 5 hrs and relative migration was measured according to the manufacturer's instructions. In experiments using anti-Tgf-β2 IgG and nonimmune IgG (10 μg/ml, both from Santa Cruz Biotechnology, Santa Cruz, Calif.), Y27632 (10 μM, Sigma Aldrich) and fasudil hydrochloride (10 μM, Tocris Bioscience, Ellisville Mo.) cells were preincubated with these agents or vehicle alone for 2 hrs in the case of antibodies and 30 mins in the case of Y27632 or fasudil at 37° C. prior to the addition to the chemotaxis chambers. Proliferation of cultured SMCs was quantified by measurement of incorporation of tritiated thymidine. SMCs were seeded at a density of 2×10^4 cells/wells in 24-well tissue culture-treated plates and incubated in serum-free DMEM for 16 hrs. Following a 2 hr preincubation with the indicated concentration of anti-Tgf-β2, nonimmune IgG, Y27632 or fasudil, cells were exposed to serum-free DMEM containing the indicated concentration of S100B or PDGF (10 ng/ml) along with 3H-thymidine (1 μCi/well). After the incubation period, cells were harvested 48 hrs later, and cellular proliferation was determined based on the incorporation of tritiated thymidine. Cell counting was performed and confirmed that increased trititated thymidine incorporation reflected an increase in cell number.

[2] = system: vascular smooth muscle cells; assay: Smooth muscle cell migration assay (QCM Colorimetric Cell Migration Assay); format: cell-based, mice; settings: S100B 10 μg/ml; for S100B-stimulated SMC migration in presence of inhibitor: preincubation with agent (Y27632 10 μM, fasudil 10 μM, anti-Tgf-β2 IgG 10 μg/ml vs IgG control), FIGS. 8D, 8F; for SMC migration on incubation with stimulant: Tgf-β2 10 ng/ml, PDGF 10 ng/ml, FIG. 8B
Description: as §1

[3] = system: ROCK1; assay: ROCK1 activity assay (MYPT1 phosphorylation) on lysates of aorta or primary aortic SMCs; format: cell-based, murine; settings: S100B 10 μg/ml, FIG. 5B
Description: Activation of ROCK1 was evaluated on lysates of aorta or primary murine aortic smooth muscle cells retrieved from wild-type or RAGE null mice. In the latter case, SMCs were stimulated with S100B (10 μg/ml for the indicated times and subjected to ROCK1 activity assays (7-8). Aortas or SMCs were lysed using a Triton X-100 lysis buffer containing 50 mM Tris (pH 7.5), 10 mM MgCl2, 0.5 M NaCl and 1% Triton X-100. The samples were incubated with Anti-ROCK1 antibody described above for 1 hr further with Protein G coated agarose beads for overnight at 4° C., and the beads were washed three times with lysis buffer. The amount of ROCK1 associated with the beads was incubated with 50 μl kinase buffer, 1 μl 10 mM ATP (Cell Signalling) and 0.5 μg […] myosin phosphatase-1 (MYPT1)/protein phosphatase-1 regulatory (inhibitor) subunit 12A (Ppplrl2a) substrate (Upstate Biotech) at […] for 30 min. Reaction was stopped by adding sample buffer, boiled for 5 min and the amount of phosphorylated MYPT1 was examined by immunoblotting using ThrB50-phosphorylation specific antibody 36-003 (Upstate Biotechnology). […] Equal quantities of ROCK1 were treated with equal quantities of MYPT1/Ppp1r12a. Relative absorbances were measured as described above, and these were used to determine the relative activation of ROCK1. […]

Row | Molecule | S100B-stimulated SMC proliferation in presence of inhibitor ([1]; wild-type SMCs) | S100B-stimulated SMC migration in presence of inhibitor ([2]; wild-type SMCs) | SMC proliferation on incubation with stimulant ([1]; RAGE-deficient SMCs) | SMC proliferation on incubation with stimulant ([1]; wild-type SMCs) | SMC migration on incubation with stimulant ([2]; RAGE-deficient SMCs) | SMC migration on incubation with stimulant ([2]; wild-type SMCs) | ROCK1 activity upon incubation with RAGE ligand ([3]; SMCs from RAGE null mice) | ROCK1 activity upon incubation with RAGE ligand ([3]; primary aortic SMCs from wild-type mice)
1 | C[C@@H](N)[C@H]1CC[C@H](C(=O)Nc2ccncc2)CC1 [Y27632, reference compound] | significantly reduced | significantly reduced |  |  |  |  |  | 
2 | O=S(=O)(c1cccc2cnccc12)N1CCCNCC1 [fasudil, 5-(1,4-diazepane-1-sulfonyl)isoquinoline, reference compound] | significantly reduced | significantly reduced |  |  |  |  |  | 
3 | PDGF [reference compound] |  |  | increased | increased | increased | increased |  | 
4 | S100B: RAGE ligand S100B (protein, UniProt P04271 2-92, looked up) Protein S100-B: SELEKAMVALIDVFHQYSGREGDKHKLKKSELKELINNELSHFLEEIKEQEVVDKVMETLDNDGDGECDFQEFMAFVAMVTTACHEFFEHE |  |  | failed to stimulate | significantly increased | failed to stimulate | significantly increased | failed to increase ROCK1 activity | increased ROCK1 activity
5 | Tgf-β2: Tgf-β2 (R&D Systems), used as SMC stimulant (protein) ALDAAYCFRNVQDNCCLRPLYIDFKRDLGWKWIHEPKGYNANFCAGACPYLWSSDTQHTKVLSLYNTINPEASASPCCVSQDLEPLTILYYIGNTPKIEQLSNMIVKSCKCS |  |  | increased | increased | increased | increased |  | 
